A short description of series [1]: nuclear/cytosolic fractionation and immunofluorescence.
The nature of series [2]: HA-Ub in-cell ubiquitination, anti-HA and anti-K48 blot. The settings on record: glycan lost; control: untreated / control shRNA.
The nature of series [3]: immunoblot of endogenous YTHDF2, hepatoma cells. The settings on record: control: untreated / control shRNA. (Immunoblotting shows a protein as a band on a membrane.)
Series [4] can be described thus: CHX chase, endogenous YTHDF2 in HepAD38. The note with it: glycan lost; control: control shRNA.
A short description of series [5]: CHX chase, Flag-YTHDF2 in HepG2-HBV1.3. The settings on record: glycan lost; control: control shRNA.
Series [6] is described as follows: CHX chase, HepG2-HBV1.3-shYTHDF2. The note with it: glycan gained; control: untreated Flag-YTHDF2-WT.
A short description of series [7]: CHX chase, HepG2-HBV1.3-shYTHDF2, anti-Flag blot. The settings on record: glycan lost; control: YTHDF2-WT.
Series [8] is described as follows: actinomycin D chase, RT-qPCR, HepG2-HBV1.3-shYTHDF2. The note with it: glycan lost; control: YTHDF2-WT.
A short description of series [9]: HA-Ub in-cell ubiquitination, Flag IP, MG132. The note with it: glycan lost; control: YTHDF2-WT.
A short description of series [10]: in vitro ubiquitination with His-OGT and UDP-GlcNAc. The settings on record: glycan lost; control: YTHDF2-WT.

The text below walks through data of article PMC9918532.

B1: YTHDF2: OSMI-1 (protein)
parent chain: MSASSLLEQRPKGQGNKVQNGSVHQKDGLNDDDFEPYLSPQARPNNAYTAMSDSYLPSYYSPSIGFSYSLGEAAWSTGGDTAMPYLTSYGQLSNGEPHFLPDAMFGQPGALGSTPFLGQHGFNFFPSGIDFSAWGNNSSQGQSTQSSGYSSNYAYAPSSLGGAMIDGQSAFANETLNKAPGMNTIDQGMAALKLGSTEVASNVPKVVGSAVGSGSITSNIVASNSLPPATIAPPKPASWADIASKPAKQQPKLKTKNGIAGSSLPPPPIKHNMDIGTWDNKGPVAKAPSQALVQNIGQPTQGSPQPVGQQANNSPPVAQASVGQQTQPLPPPPPQPAQLSVQQQAAQPTRWVAPRNRGSGFGHNGVDGNGVGQSQAGSGSTPSEPHPVLEKLRSINNYNPKDFDWNLKHGRVFIIKSYSEDDIHRSIKYNIWCSTEHGNKRLDAAYRSMNGKGPVYLLFSVNGSGHFCGVAEMKSAVDYNTCAGVWSQDKWKGRFDVRWIFVKDVPNSQLRHIRLENNENKPVTNSRDTQEVPLEKAKQVLKIIASYKHTTSIFDDFSHYEKRQEEEESVKKERQGRGK
For B1, the localisation_or_trafficking result in series [1] (glycan lost, control: untreated) is “no change”. The “other: ubiquitination” value in series [2] is “increases”. In addition, the expression_or_secretion entry in series [3] (glycan lost) is listed as “decreases”.

B2: YTHDF2: shOGT (protein)
parent chain: MSASSLLEQRPKGQGNKVQNGSVHQKDGLNDDDFEPYLSPQARPNNAYTAMSDSYLPSYYSPSIGFSYSLGEAAWSTGGDTAMPYLTSYGQLSNGEPHFLPDAMFGQPGALGSTPFLGQHGFNFFPSGIDFSAWGNNSSQGQSTQSSGYSSNYAYAPSSLGGAMIDGQSAFANETLNKAPGMNTIDQGMAALKLGSTEVASNVPKVVGSAVGSGSITSNIVASNSLPPATIAPPKPASWADIASKPAKQQPKLKTKNGIAGSSLPPPPIKHNMDIGTWDNKGPVAKAPSQALVQNIGQPTQGSPQPVGQQANNSPPVAQASVGQQTQPLPPPPPQPAQLSVQQQAAQPTRWVAPRNRGSGFGHNGVDGNGVGQSQAGSGSTPSEPHPVLEKLRSINNYNPKDFDWNLKHGRVFIIKSYSEDDIHRSIKYNIWCSTEHGNKRLDAAYRSMNGKGPVYLLFSVNGSGHFCGVAEMKSAVDYNTCAGVWSQDKWKGRFDVRWIFVKDVPNSQLRHIRLENNENKPVTNSRDTQEVPLEKAKQVLKIIASYKHTTSIFDDFSHYEKRQEEEESVKKERQGRGK
On to B2, for which the “other: ubiquitination” value in series [2] is recorded as “increases”. In addition, the degradation_or_half_life entry in series [4] and in series [5] was “decreases” in each case.

B3: YTHDF2: OGT knockdown (protein)
parent chain: MSASSLLEQRPKGQGNKVQNGSVHQKDGLNDDDFEPYLSPQARPNNAYTAMSDSYLPSYYSPSIGFSYSLGEAAWSTGGDTAMPYLTSYGQLSNGEPHFLPDAMFGQPGALGSTPFLGQHGFNFFPSGIDFSAWGNNSSQGQSTQSSGYSSNYAYAPSSLGGAMIDGQSAFANETLNKAPGMNTIDQGMAALKLGSTEVASNVPKVVGSAVGSGSITSNIVASNSLPPATIAPPKPASWADIASKPAKQQPKLKTKNGIAGSSLPPPPIKHNMDIGTWDNKGPVAKAPSQALVQNIGQPTQGSPQPVGQQANNSPPVAQASVGQQTQPLPPPPPQPAQLSVQQQAAQPTRWVAPRNRGSGFGHNGVDGNGVGQSQAGSGSTPSEPHPVLEKLRSINNYNPKDFDWNLKHGRVFIIKSYSEDDIHRSIKYNIWCSTEHGNKRLDAAYRSMNGKGPVYLLFSVNGSGHFCGVAEMKSAVDYNTCAGVWSQDKWKGRFDVRWIFVKDVPNSQLRHIRLENNENKPVTNSRDTQEVPLEKAKQVLKIIASYKHTTSIFDDFSHYEKRQEEEESVKKERQGRGK
For B3, the expression_or_secretion result in series [3] (glycan lost) is “decreases”.

B4: YTHDF2: TMG (protein)
parent chain: MSASSLLEQRPKGQGNKVQNGSVHQKDGLNDDDFEPYLSPQARPNNAYTAMSDSYLPSYYSPSIGFSYSLGEAAWSTGGDTAMPYLTSYGQLSNGEPHFLPDAMFGQPGALGSTPFLGQHGFNFFPSGIDFSAWGNNSSQGQSTQSSGYSSNYAYAPSSLGGAMIDGQSAFANETLNKAPGMNTIDQGMAALKLGSTEVASNVPKVVGSAVGSGSITSNIVASNSLPPATIAPPKPASWADIASKPAKQQPKLKTKNGIAGSSLPPPPIKHNMDIGTWDNKGPVAKAPSQALVQNIGQPTQGSPQPVGQQANNSPPVAQASVGQQTQPLPPPPPQPAQLSVQQQAAQPTRWVAPRNRGSGFGHNGVDGNGVGQSQAGSGSTPSEPHPVLEKLRSINNYNPKDFDWNLKHGRVFIIKSYSEDDIHRSIKYNIWCSTEHGNKRLDAAYRSMNGKGPVYLLFSVNGSGHFCGVAEMKSAVDYNTCAGVWSQDKWKGRFDVRWIFVKDVPNSQLRHIRLENNENKPVTNSRDTQEVPLEKAKQVLKIIASYKHTTSIFDDFSHYEKRQEEEESVKKERQGRGK
With B4, the localisation_or_trafficking entry in [1] (glycan gained, control: untreated) is “no change”. Besides, the degradation_or_half_life entry in series [6] is on record as “increases”. Moreover, the expression_or_secretion entry in series [3] (glycan gained) is on record as “increases”.

B5: YTHDF2: S263A (protein)
parent chain: MSASSLLEQRPKGQGNKVQNGSVHQKDGLNDDDFEPYLSPQARPNNAYTAMSDSYLPSYYSPSIGFSYSLGEAAWSTGGDTAMPYLTSYGQLSNGEPHFLPDAMFGQPGALGSTPFLGQHGFNFFPSGIDFSAWGNNSSQGQSTQSSGYSSNYAYAPSSLGGAMIDGQSAFANETLNKAPGMNTIDQGMAALKLGSTEVASNVPKVVGSAVGSGSITSNIVASNSLPPATIAPPKPASWADIASKPAKQQPKLKTKNGIAGSSLPPPPIKHNMDIGTWDNKGPVAKAPSQALVQNIGQPTQGSPQPVGQQANNSPPVAQASVGQQTQPLPPPPPQPAQLSVQQQAAQPTRWVAPRNRGSGFGHNGVDGNGVGQSQAGSGSTPSEPHPVLEKLRSINNYNPKDFDWNLKHGRVFIIKSYSEDDIHRSIKYNIWCSTEHGNKRLDAAYRSMNGKGPVYLLFSVNGSGHFCGVAEMKSAVDYNTCAGVWSQDKWKGRFDVRWIFVKDVPNSQLRHIRLENNENKPVTNSRDTQEVPLEKAKQVLKIIASYKHTTSIFDDFSHYEKRQEEEESVKKERQGRGK
B5: the degradation_or_half_life entry in series [7] is listed as “decreases”. Also, the “other: stabilisation of target mRNA” value in [8] is “decreases”. Also, the localisation_or_trafficking result in series [1] (glycan lost, control: YTHDF2-WT) is listed as “no change”. Besides, the “other: ubiquitination” value in series [9] and in series [10] was “increases” each time.
